This note sets out measurements from the supplement of paper PMC9112550, “Optimization of the antimicrobial peptide Bac7 by deep mutational scanning” (BMC Biology, 2022).

This data set has as its system Escherichia coli TOP10. Kind of data set: shrunken log2 fold change of peptide-encoding DNA abundance (4.5 h post-induction vs induction); higher = less antimicrobial activity (less host growth inhibition). To be noted: time post-induction: 4.5 h; library: site-saturation at positions 5, 18, 19, 20.
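Also: peptides expressed intracellularly from a pBAD plasmid library in pooled LB shake-flask culture, induced with 0.3% L-arabinose, DNA abundance read by NGS, three biological replicates, DESeq2 with apeglm shrinkage.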

For RRIRFRPPRLPRPRPRPMFMPRP, the “shrunken log2 fold change” value is -0.14.

As for RRIRNRPPRLPRPRPRPSFRPRP, the “shrunken log2 fold change” value amounted to 0.0751. The figure for RRIRCRPPRLPRPRPRPGIFPRP is 0.0252; for RRIRGRPPRLPRPRPRPDCFPRP it is 1.13; for RRIRMRPPRLPRPRPRPAYDPRP it is -0.0572. Then RRIRDRPPRLPRPRPRPHIMPRP, with -0.981; and RRIRRRPPRLPRPRPRPEWFPRP, with -0.159. The figure for RRIRDRPPRLPRPRPRPEGWPRP is 1.78; for RRIRYRPPRLPRPRPRPGAQPRP it is -0.0279. Consider RRIRDRPPRLPRPRPRPCTWPRP, for which the “shrunken log2 fold change” value was 0.0101. Then RRIRWRPPRLPRPRPRPCCIPRP, with 0.0413. Then RRIRVRPPRLPRPRPRPKPNPRP, with 0.275; and RRIRTRPPRLPRPRPRPYLIPRP, with -0.183; and RRIRVRPPRLPRPRPRPKTYPRP, with 0.325.

Regarding RRIRIRPPRLPRPRPRPFRKPRP, the “shrunken log2 fold change” value is -0.169. Turning to RRIRQRPPRLPRPRPRPYKCPRP, the “shrunken log2 fold change” value is -0.334. The figure for RRIRRRPPRLPRPRPRPMWIPRP is -0.137; for RRIRYRPPRLPRPRPRPLADPRP it is -0.213; for RRIRDRPPRLPRPRPRPDDRPRP it is 0.108. In the case of RRIRRRPPRLPRPRPRPTKTPRP, the “shrunken log2 fold change” value turned out to be 0.049. As to RRIRGRPPRLPRPRPRPISRPRP, the “shrunken log2 fold change” value was 0.0494. Then RRIRQRPPRLPRPRPRPAYEPRP, with -0.00926. Then RRIRRRPPRLPRPRPRPGTLPRP, with -0.0513; and RRIRMRPPRLPRPRPRPEWEPRP, with -0.00306. The figure for RRIRRRPPRLPRPRPRPCWDPRP is 0.234; for RRIRKRPPRLPRPRPRPPVRPRP it is 0.265. With RRIRVRPPRLPRPRPRPWWVPRP, the “shrunken log2 fold change” value was found to be 0.00127. Then RRIRSRPPRLPRPRPRPKVPPRP, with 0.0195. The figure for RRIRNRPPRLPRPRPRPCAVPRP is -0.273. On to RRIRKRPPRLPRPRPRPPNFPRP, for which the “shrunken log2 fold change” value amounted to 0.0909. Then RRIRWRPPRLPRPRPRPAGAPRP, with 0.392.

With RRIRERPPRLPRPRPRPYWCPRP, the “shrunken log2 fold change” value was -1.14. Then RRIRHRPPRLPRPRPRPVLSPRP, with -0.386; and RRIRMRPPRLPRPRPRPKDYPRP, with 0.224.

For the sequence RRIRRRPPRLPRPRPRPAASPRP, the “shrunken log2 fold change” value turned out to be 0.38. On to RRIRNRPPRLPRPRPRPDWQPRP, for which the “shrunken log2 fold change” value came out at 0.184. Regarding RRIRSRPPRLPRPRPRPGKMPRP, the “shrunken log2 fold change” value was -0.0839. Then RRIRSRPPRLPRPRPRPLQVPRP, with -0.157. Then RRIRLRPPRLPRPRPRPMSRPRP, with -0.00152; and RRIRDRPPRLPRPRPRPAGTPRP, with 0.207. For RRIRQRPPRLPRPRPRPAMMPRP, the “shrunken log2 fold change” value was determined as 0.00621. As to RRIRIRPPRLPRPRPRPLGPPRP, the “shrunken log2 fold change” value worked out at 0.0624. Turning to RRIRTRPPRLPRPRPRPLVCPRP, the “shrunken log2 fold change” value is 0.0682.

Turning to RRIRLRPPRLPRPRPRPSLAPRP, the “shrunken log2 fold change” value was found to be 0.13. For the sequence RRIRLRPPRLPRPRPRPPVCPRP, the “shrunken log2 fold change” value was 0.124. With RRIRVRPPRLPRPRPRPQMGPRP, the “shrunken log2 fold change” value was found to be 0.00696. For RRIRSRPPRLPRPRPRPFHFPRP, the “shrunken log2 fold change” value is -0.308. The figure for RRIRLRPPRLPRPRPRPICQPRP is 0.0108; for RRIRMRPPRLPRPRPRPVRHPRP it is 0.237; for RRIRIRPPRLPRPRPRPLNMPRP it is -0.528.

For RRIRYRPPRLPRPRPRPKSWPRP, the “shrunken log2 fold change” value was -0.00323. RRIRLRPPRLPRPRPRPLRLPRP: the “shrunken log2 fold change” value turned out to be 0.417. Then RRIRFRPPRLPRPRPRPTRPPRP, with 0.776; and RRIRRRPPRLPRPRPRPMWYPRP, with 0.0371. Regarding RRIRDRPPRLPRPRPRPIVWPRP, the “shrunken log2 fold change” value was -0.0132. Then RRIRRRPPRLPRPRPRPCTEPRP, with 0.106; and RRIRMRPPRLPRPRPRPTHQPRP, with 0.38; and RRIRYRPPRLPRPRPRPETLPRP, with -0.0879. The figure for RRIRVRPPRLPRPRPRPLICPRP is -0.0443; for RRIRLRPPRLPRPRPRPQNKPRP it is -0.432.

For the sequence RRIRFRPPRLPRPRPRPSQVPRP, the “shrunken log2 fold change” value was -0.398. Then RRIRMRPPRLPRPRPRPQHEPRP, with 0.212; and RRIRYRPPRLPRPRPRPGMVPRP, with 2; and RRIRRRPPRLPRPRPRPNVIPRP, with -0.265. Then RRIRLRPPRLPRPRPRPGVSPRP, with -0.161; and RRIRKRPPRLPRPRPRPIQIPRP, with -0.14; and RRIRHRPPRLPRPRPRPFFRPRP, with -0.0964. The figure for RRIRRRPPRLPRPRPRPAQYPRP is 0.34; for RRIRDRPPRLPRPRPRPWNCPRP it is -0.3; for RRIRSRPPRLPRPRPRPLHLPRP it is -0.0832.

Turning to RRIRYRPPRLPRPRPRPGVMPRP, the “shrunken log2 fold change” value is -0.55. Then RRIRPRPPRLPRPRPRPLLWPRP, with 0.0186; and RRIRIRPPRLPRPRPRPNKLPRP, with -0.499.

Take RRIRMRPPRLPRPRPRPPWCPRP: the “shrunken log2 fold change” value amounted to 0.831. The figure for RRIRFRPPRLPRPRPRPWQLPRP is -0.234; for RRIRNRPPRLPRPRPRPMARPRP it is 0.0994; for RRIRHRPPRLPRPRPRPFQAPRP it is -0.312.

Take RRIRSRPPRLPRPRPRPKASPRP: the “shrunken log2 fold change” value was -0.0199. As for RRIRDRPPRLPRPRPRPEAPPRP, the “shrunken log2 fold change” value was 0.412. The figure for RRIRMRPPRLPRPRPRPFNPPRP is -1.51; for RRIRERPPRLPRPRPRPPAKPRP it is 0.176. Consider RRIRGRPPRLPRPRPRPAERPRP, for which the “shrunken log2 fold change” value amounted to 0.388.

RRIRLRPPRLPRPRPRPKLPPRP: the “shrunken log2 fold change” value was 0.492. The figure for RRIRLRPPRLPRPRPRPHTDPRP is -0.223; for RRIRTRPPRLPRPRPRPAHQPRP it is 3.43. Then RRIRQRPPRLPRPRPRPPNNPRP, with -0.259. The figure for RRIRWRPPRLPRPRPRPHHEPRP is -0.262. Regarding RRIRGRPPRLPRPRPRPMLKPRP, the “shrunken log2 fold change” value stood at 0.575.

On to RRIRYRPPRLPRPRPRPAYSPRP, for which the “shrunken log2 fold change” value was -0.267. Then RRIRLRPPRLPRPRPRPVWRPRP, with 0.299. Then RRIRWRPPRLPRPRPRPKPEPRP, with 0.351; and RRIRWRPPRLPRPRPRPMVQPRP, with 0.121.

With RRIRWRPPRLPRPRPRPDIWPRP, the “shrunken log2 fold change” value worked out at 0.642.

On to RRIRFRPPRLPRPRPRPTPCPRP, for which the “shrunken log2 fold change” value is 0.107.

RRIRHRPPRLPRPRPRPCLPPRP: the “shrunken log2 fold change” value is -0.041. RRIRNRPPRLPRPRPRPSAMPRP: the “shrunken log2 fold change” value is -0.188.

With RRIRYRPPRLPRPRPRPFESPRP, the “shrunken log2 fold change” value is -0.0101.

As for RRIRQRPPRLPRPRPRPIWGPRP, the “shrunken log2 fold change” value is -0.105. Consider RRIRVRPPRLPRPRPRPGAQPRP, for which the “shrunken log2 fold change” value worked out at 0.00624. The figure for RRIRMRPPRLPRPRPRPTFPPRP is 0.0878; for RRIRLRPPRLPRPRPRPEFIPRP it is 0.0915; for RRIRKRPPRLPRPRPRPDDNPRP it is 1.02.

Consider RRIRYRPPRLPRPRPRPAMYPRP, for which the “shrunken log2 fold change” value is -1.14. Turning to RRIRRRPPRLPRPRPRPVFAPRP, the “shrunken log2 fold change” value was determined as 0.455. RRIRRRPPRLPRPRPRPRTKPRP: the “shrunken log2 fold change” value came to 0.0753. On to RRIRLRPPRLPRPRPRPQPYPRP, for which the “shrunken log2 fold change” value was -0.487.

Consider RRIRKRPPRLPRPRPRPEYTPRP, for which the “shrunken log2 fold change” value turned out to be 0.0243. As for RRIRCRPPRLPRPRPRPVAQPRP, the “shrunken log2 fold change” value was 0.159. Then RRIRLRPPRLPRPRPRPFLAPRP, with -0.141. Then RRIRGRPPRLPRPRPRPIRGPRP, with 0.29; and RRIRWRPPRLPRPRPRPHPAPRP, with 0.35; and RRIRTRPPRLPRPRPRPKIPPRP, with -0.21. Then RRIRQRPPRLPRPRPRPDRVPRP, with 0.00438; and RRIRERPPRLPRPRPRPHPHPRP, with -0.167; and RRIRTRPPRLPRPRPRPNVGPRP, with 0.202. For the sequence RRIRNRPPRLPRPRPRPQQWPRP, the “shrunken log2 fold change” value was -0.0346.

Regarding RRIRTRPPRLPRPRPRPNTSPRP, the “shrunken log2 fold change” value was -0.43.

As for RRIRPRPPRLPRPRPRPIYWPRP, the “shrunken log2 fold change” value stood at 0.00563. Regarding RRIRHRPPRLPRPRPRPAYLPRP, the “shrunken log2 fold change” value was -0.323.

Regarding RRIRGRPPRLPRPRPRPIGMPRP, the “shrunken log2 fold change” value is 0.244. Then RRIRPRPPRLPRPRPRPGVWPRP, with 0.54; and RRIRIRPPRLPRPRPRPFKCPRP, with 0.000802. The figure for RRIRERPPRLPRPRPRPSALPRP is -0.373.

For the sequence RRIRWRPPRLPRPRPRPPVNPRP, the “shrunken log2 fold change” value is 0.13. Then RRIRWRPPRLPRPRPRPHGCPRP, with 0.0126.
